In this assay the target is T1, gC1qR, the receptor of the globular part of the complement protein C1q, from rat brain membrane fractions (rat, UniProt O35796 72-279).
T1 construct: also called ~30 kDa band
T1 sequence (looked up): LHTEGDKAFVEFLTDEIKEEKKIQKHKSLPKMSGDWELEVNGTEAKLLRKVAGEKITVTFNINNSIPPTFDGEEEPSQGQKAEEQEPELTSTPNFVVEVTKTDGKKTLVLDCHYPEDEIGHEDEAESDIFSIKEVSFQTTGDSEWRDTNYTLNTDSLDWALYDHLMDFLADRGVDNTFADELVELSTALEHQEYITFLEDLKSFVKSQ
The assay can be described thus: chemical cross-linking to rat brain membrane fraction, Tricine-PAGE, Western blot with streptavidin-HRP; band identified as gC1q-R by LC-MS/MS. As for the experimental part: The reaction was terminated using 50 mM Tris buffer, and samples were ethanol precipitated and resolved using Tricine-PAGE and visualised by Western blot analysis by streptavidin-horse radish peroxidase. A clear band at ˜30 kDa (indicated by an arrow) was observed following chemical crosslinking using biotinylated TLQP-21., which was many orders of magnitude greater than the corresponding band in the membrane control lane using unconjugated Sulfo-EMCS cross-linker. b, Membrane fractions of P4 rat brain was applied to either monomeric avidin column attached with TLQP-21 or monomeric avidin column only (“Negative control”). Following considerable washes, proteins bound to the columns were eluted and resolved on SDS-PAGE, followed by silver staining. A ˜30 kDa band (arrow) was apparent in the elutant from the TLQP-21-attached column. C, The ˜30 kDa band was analysed by LC-MS/MS Orbitrap following trypsinisation.
Ccl11 has been linked to inflammation²³, while Cxcl9 is known as a natural antagonist to Ccl11 receptor CCR3²⁴. We then used Sulfo-EMCS-conjugated TLQP-21 to purify and identify receptor(s) for TLQP-21. […] The membrane fractions of rat brain was incubated with the crosslinker-conjugated TLQP-21, and analysed by Tricine-PAGE and Western blotting using Streptavidin-HRP for the biotin tag on TLQP-21.
On the technique in general: In western blotting, separated proteins are transferred to a membrane and probed.

B1: Sulfo-EMCS cross-linker-conjugated biotinylated TLQP-21 (peptide)
peptide: TLQPPASSRRRHFHHALPPARC
modifications: biotin covalently attached via the amide bond at the N-terminus; Sulfo-EMCS cross-linker conjugated via the sulphydryl group of the extra cysteine at the C-terminus
notes: Used for chemical cross-linking to rat membrane fractions; also called crosslinker-conjugated TLQP-21; Sulfo-EMCS-conjugated TLQP-21
As for B1, the binding result is “binds”.
